Reference: patent US20110171235A1 (University of California, published 2011)
Read-outs that look alike come from different tables or passages of the source.

Legend:
[1] = target: T1, botulinum neurotoxin type A (BoNT/A), purified holotoxin (Clostridium botulinum, UniProt P0DPI0 2-1296); assay: cell-based or functional assay
[2] = target: T1, botulinum neurotoxin type A (BoNT/A), …
[3] = target: T1, botulinum neurotoxin type A (BoNT/A), …; remark: listed apart in the source
[4] = target: T1, botulinum neurotoxin type A (BoNT/A), …; assay: yeast display
[5] = target: T1, botulinum neurotoxin type A (BoNT/A), …; remark: listed apart in the source
[6] = target: T1, botulinum neurotoxin type A (BoNT/A), …; assay: yeast displayed scFv, flow cytometry
[7] = target: T1, botulinum neurotoxin type A (BoNT/A), …; assay: Kinexa

B1: C25 scFv (scFv)
scFv: QVQLQESGGGLVKPGGSLKLSCAASGFTFSDYYMYWVRQTPEKRLEWVATISDGGSYTYYPDSVKGRFTISRDNAKNNLYLQMSSLKSEDTAMYYCSRYRYDDAMDYWGQGTTVTVSSGGGGSGGGGSGGGGSDIELTQSPASLAVSLGQRATISCRASESVDSYGHSFMQWYQQKPGQPPKLLIYRASNLEPGIPARFSGSGSGTDFTLTINPVEADDVATYYCQQSNEDPFTFGSGTKLEIKR
- prolongation of time to neuroparalysis [1]: 2.7 fold

B2: 3D12 scFv (scFv, V domains shown)
VH: QVQLVQSGGGVVHPGRSLKLSCAGSGFTFSDYDMHWVRQAPGKGLEWVAVMWFDGTEKYSAESVKGRFTISRDNSKNTLFLQMNSLRADDTAVYYCAREPDWLLWGDRGALDVWGQGTTVTVSS
VL: DIVMTQSPSTLSASVGDRVTITCRASQSISSWLAWYQQKPGKAPKLLMYEASSLESGVPSRFSGSGSGTEFTLTISSLQPDDFAAYYCQHYNTYPYTFGQGTKLEIK
- Kd [2]: 0.943 nM
- prolongation of time to neuroparalysis [1]: 1.5 fold

B3: RAZ1 IgG (antibody, V domains shown)
VH: QVQLVQSGGGVVHPGRSLKLSCAGSGFTFSDYDMHWVRQAPGKGLEWVAVMWFDGTEKYSAESVKGRFTISRDNSKNTLFLQMNSLRADDTAVYYCAREPDWLLWGDRGALDVWGQGTTVTVSS
VL: DIVMTQSPSTLSASVGDRVTITCWASQSISSRLAWYQQKPGKAPKLLMYEATSLGSGVPSRFSGSGSGTEFTLTISSLQPDDFAAYYCQHYDTYPYTFGQGTKLEIKR
- fold higher affinity than 3D12 IgG [3]: 35 fold

B4: AR4 scFv (scFv, V domains shown)
VH: QVQLQESGGGLVQPGGSLRLSCAASGFTFEEHYMYWVRQAPGKGLEWVATISDGGSYTYYPDSVEGRFTTSRDNSKNTLYLQMNSLRAEDTAIYYCSRYRYDDAMDYWGQGTLVTVSS
VL: EIVLTQSPATLSLSPGERATISCRASESVDSYGHSFMQWYQQKPGQAPRLLIYRASNLEPGIPARFSGSGSGTDFTLTISSLEPEDFAVYYCQQGNEVPFTFGQGTKVEIK
- fold higher affinity than HuC25 scFv [4]: 37 fold
- Kd [5]: 0.0226 nM
- Kd [6]: 0.023 nM

B5: AR3 scFv (scFv, V domains shown)
VH: QVQLQESGGGLVQPGGSLRLSCAASGFTFGEHYMYWVRQAPGKGLEWVATISDGGSYTYYPDSVEGRFTTSRDNSKNTLYLQMNSLRAEDTAIYYCSRYRYDDAMDYWGQGTLVTVSS
VL: EIVLTQSPATLSLSPGERATISCRASESVDSYGHSFMQWYQQKPGQAPRLLIYRASNLEPGIPARFSGSGSGTDFTLTISSLEPEDFAVYYCQQGNEVPFTFGQGTKVEIK
- Kd [6]: 0.019 nM

B6: HuC25 scFv (scFv, V domains shown)
VH: QVQLQESGGGLVQPGGSLRLSCAASGFTFSDYYMYWVRQAPGKGLEWVATISDGGSYTYYPDSVKGRFTISRDNSKNTLYLQMNSLRAEDTAMYYCSRYRYDDAMDYWGQGTLVTVSS
VL: EIVLTQSPATLSLSPGERATISCRASESVDSYGHSFMQWYQQKPGQAPRLLIYRASNLEPGIPARFSGSGSGTDFTLTISSLEPEDFAVYYCQQSNEDPFTFGQGTKVEIK
- Kd [6]: 0.844 nM

B7: AR2 scFv (scFv, V domains shown)
VH: QVQLQESGGGLVQPGGSLRLSCAASGFTFSDHYMYWVRQAPGKGLEWVATISDGGSYTYYPDSVKGRFTTSRDNSKNTLYLQMNSLRAEDTAIYYCSRYRYDDAMDYWGQGTLVTVSS
VL: EIVLTQSPATLSLSPGERATISCRASESVDSYGHSFMQWYQQKPGQAPRLLIYRASNLEPGIPARFSGSGSGTDFTLTISSLEPEDFAVYYCQQGNEVPFTFGQGTKVEIK
- Kd [6]: 0.0614 nM
- fold increase against parental AR1 [6]: 2.8 fold

B8: AR4 IgG (antibody, V domains shown)
VH: QVQLQESGGGLVQPGGSLRLSCAASGFTFEEHYMYWVRQAPGKGLEWVATISDGGSYTYYPDSVEGRFTTSRDNSKNTLYLQMNSLRAEDTAIYYCSRYRYDDAMDYWGQGTLVTVSS
VL: EIVLTQSPATLSLSPGERATISCRASESVDSYGHSFMQWYQQKPGQAPRLLIYRASNLEPGIPARFSGSGSGTDFTLTISSLEPEDFAVYYCQQGNEVPFTFGQGTKVEIKR
- fold higher affinity than HuC25 IgG [7]: 34 fold

B9: AR1 scFv (scFv, V domains shown)
VH: QVQLQESGGGLVQPGGSLRLSCAASGFTFSDYYMYWVRQAPGKGLEWVATISDGGSYTYYPDSVKGRFTISRDNSKNTLYLQMNSLRAEDTAIYYCSRYRYDDAMDYWGQGTLVTVSS
VL: EIVLTQSPATLSLSPGERATISCRASESVDSYGHSFMQWYQQKPGQAPRLLIYRASNLEPGIPARFSGSGSGTDFTLTISSLEPEDFAVYYCQQGNEVPFTFGQGTKVEIK
- Kd [6]: 0.169 nM
- fold improvement of KD against HuC25 [6]: 5 fold
